# Data published in the supplement of paper PMC9876800.
# Test system: peptide library, one residue held at a place counted from the S/T acceptor
# Assay: relative phosphorylation of the sub-library (ratio to the mean residue at this position); human; higher = residue favoured
# Conditions: A fixed; at +1
# In short: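 Relative sub-library phosphorylation is the ratio of each sub-library's signal to the mean residue at that position. The signal came from phosphorimaging of spots on streptavidin membranes, quantified by densitometry, after purified recombinant kinases reacted with biotinylated degenerate peptide sub-libraries in 384-well plates. Reactions held 50 μM peptide and 50 μM ATP spiked with γ-32P-ATP for 90 min under kinase-specific conditions.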
# Chain of MAP3K10, construct: aa1-449 (Q02779 1-449, looked up): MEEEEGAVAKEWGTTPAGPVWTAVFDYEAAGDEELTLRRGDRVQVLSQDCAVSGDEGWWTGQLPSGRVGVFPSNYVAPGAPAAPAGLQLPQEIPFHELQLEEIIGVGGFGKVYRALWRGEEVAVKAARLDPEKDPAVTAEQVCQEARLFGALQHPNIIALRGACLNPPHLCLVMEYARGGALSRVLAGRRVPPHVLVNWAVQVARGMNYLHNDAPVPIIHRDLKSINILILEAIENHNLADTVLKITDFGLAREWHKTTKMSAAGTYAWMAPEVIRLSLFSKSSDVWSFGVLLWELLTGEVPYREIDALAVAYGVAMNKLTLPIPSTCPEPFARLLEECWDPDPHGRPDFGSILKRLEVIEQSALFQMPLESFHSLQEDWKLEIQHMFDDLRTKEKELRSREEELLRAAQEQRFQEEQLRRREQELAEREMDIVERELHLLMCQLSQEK
# Chain of CHEK2, construct: Full length (O96017 whole entry, looked up): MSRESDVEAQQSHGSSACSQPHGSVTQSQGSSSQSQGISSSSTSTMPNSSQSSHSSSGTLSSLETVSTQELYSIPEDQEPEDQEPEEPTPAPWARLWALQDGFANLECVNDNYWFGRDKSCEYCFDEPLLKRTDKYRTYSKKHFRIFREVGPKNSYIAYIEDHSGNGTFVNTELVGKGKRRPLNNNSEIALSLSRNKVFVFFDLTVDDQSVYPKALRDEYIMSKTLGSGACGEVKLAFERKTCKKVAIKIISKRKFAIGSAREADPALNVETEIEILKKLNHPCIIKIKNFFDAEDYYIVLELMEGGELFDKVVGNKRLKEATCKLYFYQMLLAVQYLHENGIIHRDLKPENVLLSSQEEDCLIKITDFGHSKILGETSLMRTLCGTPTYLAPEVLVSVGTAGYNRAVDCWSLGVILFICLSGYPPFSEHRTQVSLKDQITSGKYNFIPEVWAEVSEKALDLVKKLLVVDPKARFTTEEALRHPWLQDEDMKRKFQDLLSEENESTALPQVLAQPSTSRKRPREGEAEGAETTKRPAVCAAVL
# Chain of CAMK1, construct: Full length (Q14012 whole entry, looked up): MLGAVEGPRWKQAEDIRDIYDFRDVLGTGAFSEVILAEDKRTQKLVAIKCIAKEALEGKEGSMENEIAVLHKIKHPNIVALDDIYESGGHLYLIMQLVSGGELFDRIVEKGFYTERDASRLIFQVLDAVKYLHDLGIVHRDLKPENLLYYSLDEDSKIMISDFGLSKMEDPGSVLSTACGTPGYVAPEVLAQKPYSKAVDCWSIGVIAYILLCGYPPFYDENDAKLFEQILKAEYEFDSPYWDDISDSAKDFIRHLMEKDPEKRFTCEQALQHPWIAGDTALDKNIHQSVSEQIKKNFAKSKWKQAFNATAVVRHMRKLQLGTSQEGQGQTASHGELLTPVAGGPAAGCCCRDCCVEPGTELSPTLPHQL
# Chain of MAP4K3, construct: aa1-380 (Q8IVH8 1-380, looked up): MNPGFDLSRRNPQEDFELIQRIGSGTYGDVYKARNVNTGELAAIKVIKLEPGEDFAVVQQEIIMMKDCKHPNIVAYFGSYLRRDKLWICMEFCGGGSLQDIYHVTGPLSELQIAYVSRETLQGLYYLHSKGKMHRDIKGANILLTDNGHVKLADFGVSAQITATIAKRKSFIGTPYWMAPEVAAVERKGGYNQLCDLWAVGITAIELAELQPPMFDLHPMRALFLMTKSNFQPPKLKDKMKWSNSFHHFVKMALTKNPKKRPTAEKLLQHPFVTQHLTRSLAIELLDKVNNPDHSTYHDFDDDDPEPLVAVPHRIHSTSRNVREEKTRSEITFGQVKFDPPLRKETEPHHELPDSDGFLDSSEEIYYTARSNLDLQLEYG
# Chain of EIF2AK1, construct: Full length (Q9BQI3 whole entry, looked up): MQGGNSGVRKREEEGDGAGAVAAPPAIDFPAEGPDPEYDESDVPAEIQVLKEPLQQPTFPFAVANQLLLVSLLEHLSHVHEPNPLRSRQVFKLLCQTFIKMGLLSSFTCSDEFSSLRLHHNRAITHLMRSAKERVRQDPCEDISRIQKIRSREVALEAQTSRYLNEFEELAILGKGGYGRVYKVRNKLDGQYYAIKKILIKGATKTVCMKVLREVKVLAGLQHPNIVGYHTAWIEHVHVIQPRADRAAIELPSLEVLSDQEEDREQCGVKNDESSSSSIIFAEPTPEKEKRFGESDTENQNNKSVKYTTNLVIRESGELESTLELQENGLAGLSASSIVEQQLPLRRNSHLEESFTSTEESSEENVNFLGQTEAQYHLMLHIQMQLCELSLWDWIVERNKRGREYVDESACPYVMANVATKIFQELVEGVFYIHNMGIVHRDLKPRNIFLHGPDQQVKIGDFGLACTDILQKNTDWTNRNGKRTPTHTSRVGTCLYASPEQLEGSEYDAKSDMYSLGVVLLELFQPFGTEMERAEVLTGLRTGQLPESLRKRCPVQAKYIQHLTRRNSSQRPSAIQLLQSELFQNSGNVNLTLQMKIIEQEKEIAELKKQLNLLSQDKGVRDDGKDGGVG
# Chain of TTBK1, construct: Full length (Q5TCY1 whole entry, looked up): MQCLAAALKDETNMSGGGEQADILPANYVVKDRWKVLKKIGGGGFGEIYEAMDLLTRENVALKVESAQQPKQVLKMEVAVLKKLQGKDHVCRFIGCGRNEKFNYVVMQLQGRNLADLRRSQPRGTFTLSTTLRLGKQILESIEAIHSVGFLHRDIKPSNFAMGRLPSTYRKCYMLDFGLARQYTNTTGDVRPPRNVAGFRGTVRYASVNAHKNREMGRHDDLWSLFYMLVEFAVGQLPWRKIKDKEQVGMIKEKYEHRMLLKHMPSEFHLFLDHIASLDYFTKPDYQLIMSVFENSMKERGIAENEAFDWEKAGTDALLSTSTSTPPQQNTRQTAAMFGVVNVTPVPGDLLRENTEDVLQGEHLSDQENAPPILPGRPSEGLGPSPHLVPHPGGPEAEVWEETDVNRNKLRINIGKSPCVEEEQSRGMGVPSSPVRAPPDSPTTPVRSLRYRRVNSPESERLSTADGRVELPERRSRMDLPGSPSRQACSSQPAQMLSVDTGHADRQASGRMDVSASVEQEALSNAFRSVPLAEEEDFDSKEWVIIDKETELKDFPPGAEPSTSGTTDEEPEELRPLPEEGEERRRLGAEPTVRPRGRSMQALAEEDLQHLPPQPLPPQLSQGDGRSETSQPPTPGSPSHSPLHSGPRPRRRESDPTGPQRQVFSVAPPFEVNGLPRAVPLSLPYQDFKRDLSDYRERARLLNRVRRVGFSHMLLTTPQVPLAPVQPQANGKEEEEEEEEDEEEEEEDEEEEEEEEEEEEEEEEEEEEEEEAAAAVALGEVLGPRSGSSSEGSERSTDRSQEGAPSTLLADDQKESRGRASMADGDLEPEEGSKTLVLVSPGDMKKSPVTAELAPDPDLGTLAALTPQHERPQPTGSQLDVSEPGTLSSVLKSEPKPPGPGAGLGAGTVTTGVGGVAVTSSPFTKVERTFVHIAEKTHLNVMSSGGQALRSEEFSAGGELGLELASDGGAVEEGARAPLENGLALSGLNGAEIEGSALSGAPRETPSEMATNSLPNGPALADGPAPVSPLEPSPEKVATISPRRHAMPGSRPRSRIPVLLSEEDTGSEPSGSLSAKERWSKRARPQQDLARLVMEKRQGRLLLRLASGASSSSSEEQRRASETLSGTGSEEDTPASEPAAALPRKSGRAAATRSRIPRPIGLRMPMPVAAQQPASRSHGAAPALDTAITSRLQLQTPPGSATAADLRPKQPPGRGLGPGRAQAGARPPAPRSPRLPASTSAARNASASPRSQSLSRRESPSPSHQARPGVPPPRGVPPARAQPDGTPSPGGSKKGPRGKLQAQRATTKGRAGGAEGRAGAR
# Chain of MOK, construct: aa1-343 (Q9UQ07 1-343, looked up): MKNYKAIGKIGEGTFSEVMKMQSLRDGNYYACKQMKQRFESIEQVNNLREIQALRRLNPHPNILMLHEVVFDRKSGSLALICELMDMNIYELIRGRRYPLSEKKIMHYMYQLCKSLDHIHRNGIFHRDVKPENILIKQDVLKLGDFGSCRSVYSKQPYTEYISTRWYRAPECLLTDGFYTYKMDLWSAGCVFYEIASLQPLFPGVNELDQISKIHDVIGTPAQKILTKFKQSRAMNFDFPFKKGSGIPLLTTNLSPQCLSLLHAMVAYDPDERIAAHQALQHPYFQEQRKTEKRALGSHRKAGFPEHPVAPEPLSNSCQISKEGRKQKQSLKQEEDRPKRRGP
row,Substance,relative phosphorylation
1,"MOK, construct: aa1-343 (from UniProt Q9UQ07)",2.2
2,"TTBK1, construct: Full length (from UniProt Q5TCY1)",0.474
3,"CHEK2, construct: Full length (from UniProt O96017)",0.589
4,"MAP4K3, construct: aa1-380 (from UniProt Q8IVH8)",0.464
5,"CAMK1, construct: Full length (from UniProt Q14012)",0.669
6,"MAP3K10, construct: aa1-449 (from UniProt Q02779)",0.988
7,"EIF2AK1, construct: Full length (from UniProt Q9BQI3)",0.697
8,"PKN3, construct: Full length (from UniProt Q6P5Z2)",0.497

# Same assay, conditions: A fixed; at +2
row,Substance,relative phosphorylation
1,"MOK, construct: aa1-343 (from UniProt Q9UQ07)",1.04
2,"TTBK1, construct: Full length (from UniProt Q5TCY1)",1.63
3,"CHEK2, construct: Full length (from UniProt O96017)",0.731
4,"MAP4K3, construct: aa1-380 (from UniProt Q8IVH8)",0.792
5,"CAMK1, construct: Full length (from UniProt Q14012)",0.817
6,"MAP3K10, construct: aa1-449 (from UniProt Q02779)",0.921
7,"EIF2AK1, construct: Full length (from UniProt Q9BQI3)",0.999
8,"PKN3, construct: Full length (from UniProt Q6P5Z2)",0.811

# Same assay, conditions: A fixed; at +3
row,Substance,relative phosphorylation
1,"MOK, construct: aa1-343 (from UniProt Q9UQ07)",1.2
2,"TTBK1, construct: Full length (from UniProt Q5TCY1)",0.964
3,"CHEK2, construct: Full length (from UniProt O96017)",0.81
4,"MAP4K3, construct: aa1-380 (from UniProt Q8IVH8)",0.671
5,"CAMK1, construct: Full length (from UniProt Q14012)",0.709
6,"MAP3K10, construct: aa1-449 (from UniProt Q02779)",1.06
7,"EIF2AK1, construct: Full length (from UniProt Q9BQI3)",0.699
8,"PKN3, construct: Full length (from UniProt Q6P5Z2)",0.681

# Same assay, conditions: A fixed; at +4
row,Substance,relative phosphorylation
1,"MOK, construct: aa1-343 (from UniProt Q9UQ07)",0.799
2,"TTBK1, construct: Full length (from UniProt Q5TCY1)",0.817
3,"CHEK2, construct: Full length (from UniProt O96017)",0.837
4,"MAP4K3, construct: aa1-380 (from UniProt Q8IVH8)",0.932
5,"CAMK1, construct: Full length (from UniProt Q14012)",0.598
6,"MAP3K10, construct: aa1-449 (from UniProt Q02779)",1.24
7,"EIF2AK1, construct: Full length (from UniProt Q9BQI3)",0.762
8,"PKN3, construct: Full length (from UniProt Q6P5Z2)",0.955

# Same assay, conditions: A fixed; at -1
row,Substance,relative phosphorylation
1,"MOK, construct: aa1-343 (from UniProt Q9UQ07)",1.12
2,"TTBK1, construct: Full length (from UniProt Q5TCY1)",0.663
3,"CHEK2, construct: Full length (from UniProt O96017)",0.816
4,"MAP4K3, construct: aa1-380 (from UniProt Q8IVH8)",0.978
5,"CAMK1, construct: Full length (from UniProt Q14012)",0.804
6,"MAP3K10, construct: aa1-449 (from UniProt Q02779)",0.881
7,"EIF2AK1, construct: Full length (from UniProt Q9BQI3)",0.698
8,"PKN3, construct: Full length (from UniProt Q6P5Z2)",0.874

# Same assay, conditions: A fixed; at -2
row,Substance,relative phosphorylation
1,"MOK, construct: aa1-343 (from UniProt Q9UQ07)",1.03
2,"TTBK1, construct: Full length (from UniProt Q5TCY1)",0.79
3,"CHEK2, construct: Full length (from UniProt O96017)",1.26
4,"MAP4K3, construct: aa1-380 (from UniProt Q8IVH8)",1.09
5,"CAMK1, construct: Full length (from UniProt Q14012)",1.02
6,"MAP3K10, construct: aa1-449 (from UniProt Q02779)",0.969
7,"EIF2AK1, construct: Full length (from UniProt Q9BQI3)",0.907
8,"PKN3, construct: Full length (from UniProt Q6P5Z2)",1.12

# Same assay, conditions: A fixed; at -3
row,Substance,relative phosphorylation
1,"MOK, construct: aa1-343 (from UniProt Q9UQ07)",0.724
2,"TTBK1, construct: Full length (from UniProt Q5TCY1)",0.94
3,"CHEK2, construct: Full length (from UniProt O96017)",0.562
4,"MAP4K3, construct: aa1-380 (from UniProt Q8IVH8)",0.815
5,"CAMK1, construct: Full length (from UniProt Q14012)",0.635
6,"MAP3K10, construct: aa1-449 (from UniProt Q02779)",1.12
7,"EIF2AK1, construct: Full length (from UniProt Q9BQI3)",1.04
8,"PKN3, construct: Full length (from UniProt Q6P5Z2)",0.679

# Same assay, conditions: A fixed; at -4
row,Substance,relative phosphorylation
1,"MOK, construct: aa1-343 (from UniProt Q9UQ07)",0.79
2,"TTBK1, construct: Full length (from UniProt Q5TCY1)",0.821
3,"CHEK2, construct: Full length (from UniProt O96017)",0.987
4,"MAP4K3, construct: aa1-380 (from UniProt Q8IVH8)",0.964
5,"CAMK1, construct: Full length (from UniProt Q14012)",0.826
6,"MAP3K10, construct: aa1-449 (from UniProt Q02779)",1.23
7,"EIF2AK1, construct: Full length (from UniProt Q9BQI3)",0.971
8,"PKN3, construct: Full length (from UniProt Q6P5Z2)",1.07

# Same assay, conditions: A fixed; at -5
row,Substance,relative phosphorylation
1,"MOK, construct: aa1-343 (from UniProt Q9UQ07)",0.816
2,"TTBK1, construct: Full length (from UniProt Q5TCY1)",0.856
3,"CHEK2, construct: Full length (from UniProt O96017)",0.172
4,"MAP4K3, construct: aa1-380 (from UniProt Q8IVH8)",1.07
5,"CAMK1, construct: Full length (from UniProt Q14012)",0.346
6,"MAP3K10, construct: aa1-449 (from UniProt Q02779)",1.48
7,"EIF2AK1, construct: Full length (from UniProt Q9BQI3)",0.979
8,"PKN3, construct: Full length (from UniProt Q6P5Z2)",0.92

# Same assay, conditions: D fixed; at +1
row,Substance,relative phosphorylation
1,"MOK, construct: aa1-343 (from UniProt Q9UQ07)",0.137
2,"TTBK1, construct: Full length (from UniProt Q5TCY1)",0.168
3,"CHEK2, construct: Full length (from UniProt O96017)",0.317
4,"MAP4K3, construct: aa1-380 (from UniProt Q8IVH8)",0.179
5,"CAMK1, construct: Full length (from UniProt Q14012)",0.448
6,"MAP3K10, construct: aa1-449 (from UniProt Q02779)",0.28
7,"EIF2AK1, construct: Full length (from UniProt Q9BQI3)",0.365
8,"PKN3, construct: Full length (from UniProt Q6P5Z2)",0.614

# Same assay, conditions: D fixed; at +2
row,Substance,relative phosphorylation
1,"MOK, construct: aa1-343 (from UniProt Q9UQ07)",0.59
2,"TTBK1, construct: Full length (from UniProt Q5TCY1)",0.192
3,"CHEK2, construct: Full length (from UniProt O96017)",0.397
4,"MAP4K3, construct: aa1-380 (from UniProt Q8IVH8)",0.667
5,"CAMK1, construct: Full length (from UniProt Q14012)",0.609
